Article PMC9482650, “Quantitative fragmentomics allow affinity mapping of interactomes” (Nature Communications, 2022)
One block for each binder: values may come before it.

How the values were obtained:
Assay in all cases: holdup assay
Parameters in all cases: key: below the threshold = too weak to quantify, mostly under pKd 3.1 to 4
APBA1_2, Q02410 = biological target: T1, APBA1_2, Q02410
T1 sequence (Q02410 742-832, limits assumed, looked up): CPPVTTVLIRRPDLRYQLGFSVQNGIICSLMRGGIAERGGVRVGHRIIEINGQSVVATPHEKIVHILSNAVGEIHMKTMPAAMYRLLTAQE

DFNB31_3, Q9P202 = biological target: T2, DFNB31_3, Q9P202
T2 sequence (Q9P202 811-907, limits assumed, looked up): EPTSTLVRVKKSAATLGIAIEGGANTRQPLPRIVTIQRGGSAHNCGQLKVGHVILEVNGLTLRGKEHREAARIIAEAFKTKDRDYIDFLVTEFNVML

DLG2_3, Q15700 = biological target: DLG2_3, Q15700
FRMPD1, Q5SYB0 = biological target: T3, FRMPD1, Q5SYB0
T3 sequence (Q5SYB0 52-145, limits assumed, looked up): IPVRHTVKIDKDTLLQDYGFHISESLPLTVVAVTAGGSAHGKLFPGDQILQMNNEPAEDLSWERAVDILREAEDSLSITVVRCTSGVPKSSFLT

FRMPD2_1, Q68DX3 = biological target: FRMPD2_1, Q68DX3
FRMPD3, Q5JV73 = biological target: FRMPD3, Q5JV73
FRMPD4, Q14CM0 = biological target: FRMPD4, Q14CM0
GRIP1_4, Q9Y3R0 = biological target: T4, GRIP1_4, Q9Y3R0
T4 sequence (Q9Y3R0 467-571, limits assumed, looked up): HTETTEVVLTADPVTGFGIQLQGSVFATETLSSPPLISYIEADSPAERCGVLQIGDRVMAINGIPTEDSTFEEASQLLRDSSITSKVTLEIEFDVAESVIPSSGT

GRIP1_5, Q9Y3R0 = biological target: T5, GRIP1_5, Q9Y3R0
T5 sequence (Q9Y3R0 568-668, limits assumed, looked up): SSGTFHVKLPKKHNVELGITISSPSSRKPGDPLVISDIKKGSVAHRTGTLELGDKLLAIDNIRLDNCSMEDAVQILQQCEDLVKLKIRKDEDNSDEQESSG

Inadl_1, Q8NI35 = biological target: Inadl_1, Q8NI35
Inadl_10, Q8NI35 = biological target: Inadl_10, Q8NI35
Inadl_4, Q8NI35 = biological target: Inadl_4, Q8NI35
Inadl_6, Q8NI35 = biological target: Inadl_6, Q8NI35
LNX1_3, Q8TBB1 = biological target: LNX1_3, Q8TBB1
LNX2_2, Q8N448 = biological target: T6, LNX2_2, Q8N448
T6 sequence (Q8N448 334-432, limits assumed, looked up): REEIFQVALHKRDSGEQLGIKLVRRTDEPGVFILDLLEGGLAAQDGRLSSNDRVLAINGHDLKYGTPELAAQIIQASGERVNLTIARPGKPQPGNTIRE

MAGI2_3, Q86UL8 = biological target: MAGI2_3, Q86UL8
MAGI3_2, Q5TCQ9 = biological target: MAGI3_2, Q5TCQ9
MPDZ_5, O75970 = biological target: T7, MPDZ_5, O75970
T7 sequence (O75970 695-796, limits assumed, looked up): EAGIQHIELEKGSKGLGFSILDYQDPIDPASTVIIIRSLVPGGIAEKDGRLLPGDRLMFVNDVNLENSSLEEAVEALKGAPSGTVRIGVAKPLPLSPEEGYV

NHERF4_2, Q86UT5 = biological target: NHERF4_2, Q86UT5
NOS1, P29475 = biological target: NOS1, P29475
PARD3B_1, Q8TEW8 = biological target: T8, PARD3B_1, Q8TEW8
T8 sequence (Q8TEW8 196-299, limits assumed, looked up): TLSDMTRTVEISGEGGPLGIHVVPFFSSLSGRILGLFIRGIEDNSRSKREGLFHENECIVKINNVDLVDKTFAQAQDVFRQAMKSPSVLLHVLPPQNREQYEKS

PDLIM1, O00151 = biological target: PDLIM1, O00151
PDZD7_3, Q9H5P4 = biological target: T9, PDZD7_3, Q9H5P4
T9 sequence (Q9H5P4 857-944, limits assumed, looked up): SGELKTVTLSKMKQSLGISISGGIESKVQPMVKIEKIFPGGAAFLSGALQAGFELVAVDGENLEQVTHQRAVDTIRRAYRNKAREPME

PDZRN4_1, Q6ZMN7 = biological target: PDZRN4_1, Q6ZMN7
PTPN3, P26045 = biological target: PTPN3, P26045
SHANK1, Q9Y566 = biological target: T10, SHANK1, Q9Y566
T10 sequence (Q9Y566 658-767, limits assumed, looked up): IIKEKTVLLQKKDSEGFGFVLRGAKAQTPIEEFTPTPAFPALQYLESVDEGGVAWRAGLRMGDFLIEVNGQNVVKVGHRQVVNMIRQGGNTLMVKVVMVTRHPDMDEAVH

SIPA1L2, Q9P2F8 = biological target: T11, SIPA1L2, Q9P2F8
T11 sequence (Q9P2F8 945-1036, limits assumed, looked up): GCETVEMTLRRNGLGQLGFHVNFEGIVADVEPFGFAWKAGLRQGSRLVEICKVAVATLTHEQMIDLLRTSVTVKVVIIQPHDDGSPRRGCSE

[1] = plain residues with an end cap or a label only (N-terminal biotin on a linker: ttds)
[2] = plain residues with an end cap or a label only (N-terminal biotin on a linker: ahx)

FRMPD4, Q14CM0, sequence (Q14CM0 67-160): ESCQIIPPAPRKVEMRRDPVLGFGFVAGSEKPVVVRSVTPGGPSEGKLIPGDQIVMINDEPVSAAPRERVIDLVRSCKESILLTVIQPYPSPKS
NOS1, P29475, sequence (P29475 9-101): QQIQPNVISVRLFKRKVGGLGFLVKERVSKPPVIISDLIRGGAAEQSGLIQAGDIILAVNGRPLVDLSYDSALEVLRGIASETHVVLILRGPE
PDZRN4_1, Q6ZMN7, sequence (Q6ZMN7 213-318): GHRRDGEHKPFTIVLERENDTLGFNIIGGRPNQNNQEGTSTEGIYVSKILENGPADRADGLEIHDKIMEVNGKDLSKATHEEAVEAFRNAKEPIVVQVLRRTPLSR
MAGI2_3, Q86UL8, sequence (Q86UL8 600-682): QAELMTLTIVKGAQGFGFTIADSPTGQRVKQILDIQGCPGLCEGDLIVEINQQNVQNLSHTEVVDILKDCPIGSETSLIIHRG
Inadl_1, Q8NI35, sequence (Q8NI35 113-229): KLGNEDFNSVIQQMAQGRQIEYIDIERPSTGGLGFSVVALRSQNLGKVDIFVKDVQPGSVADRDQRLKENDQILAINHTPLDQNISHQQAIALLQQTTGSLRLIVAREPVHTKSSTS
PDLIM1, O00151, sequence (O00151 1-87): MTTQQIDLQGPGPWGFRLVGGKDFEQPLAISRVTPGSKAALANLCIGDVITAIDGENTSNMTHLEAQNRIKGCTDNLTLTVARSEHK
FRMPD2_1, Q68DX3, sequence (Q68DX3 770-861): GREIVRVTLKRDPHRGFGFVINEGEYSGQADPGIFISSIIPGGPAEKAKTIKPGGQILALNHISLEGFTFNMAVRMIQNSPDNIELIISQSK
PTPN3, P26045, sequence (P26045 505-587): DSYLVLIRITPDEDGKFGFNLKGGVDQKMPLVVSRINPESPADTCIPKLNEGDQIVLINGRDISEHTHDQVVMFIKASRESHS
FRMPD3, Q5JV73, sequence (Q5JV73 12-100): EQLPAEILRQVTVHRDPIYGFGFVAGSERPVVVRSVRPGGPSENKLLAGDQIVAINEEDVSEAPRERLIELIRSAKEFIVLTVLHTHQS
NHERF4_2, Q86UT5, sequence (Q86UT5 220-308): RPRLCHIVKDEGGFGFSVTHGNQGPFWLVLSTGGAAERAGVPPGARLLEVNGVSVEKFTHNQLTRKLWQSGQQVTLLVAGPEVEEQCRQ
Inadl_4, Q8NI35, sequence (Q8NI35 547-651): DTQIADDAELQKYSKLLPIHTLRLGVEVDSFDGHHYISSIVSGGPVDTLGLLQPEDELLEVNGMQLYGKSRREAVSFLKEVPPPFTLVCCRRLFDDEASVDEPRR
Inadl_10, Q8NI35, sequence (Q8NI35 1673-1763): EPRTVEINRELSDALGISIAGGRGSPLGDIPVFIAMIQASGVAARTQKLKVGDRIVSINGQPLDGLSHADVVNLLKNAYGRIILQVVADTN
Inadl_6, Q8NI35, sequence (Q8NI35 1058-1167): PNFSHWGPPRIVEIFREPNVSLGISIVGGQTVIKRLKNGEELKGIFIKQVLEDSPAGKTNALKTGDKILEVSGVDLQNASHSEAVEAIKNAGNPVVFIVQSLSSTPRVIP
MAGI3_2, Q5TCQ9, sequence (Q5TCQ9 398-503): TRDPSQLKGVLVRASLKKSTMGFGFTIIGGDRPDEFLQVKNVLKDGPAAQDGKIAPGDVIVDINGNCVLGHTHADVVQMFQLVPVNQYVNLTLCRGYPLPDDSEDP
LNX1_3, Q8TBB1, sequence (Q8TBB1 500-596): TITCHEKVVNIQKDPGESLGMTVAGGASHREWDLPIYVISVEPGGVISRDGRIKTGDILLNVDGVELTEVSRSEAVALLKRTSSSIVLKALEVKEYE

- pKd (APBA1_2, Q02410; [1]): below the threshold
- pKd (DFNB31_3, Q9P202; [1]): below the threshold
- pKd (DLG2_3, Q15700; [1]): below the threshold
- pKd (FRMPD1, Q5SYB0; [1]): below the threshold
- pKd (FRMPD2_1, Q68DX3; [1]): below the threshold
- pKd (FRMPD3, Q5JV73; [1]): below the threshold
- pKd (FRMPD4, Q14CM0; [1]): below the threshold
- pKd (GRIP1_4, Q9Y3R0; [1]): below the threshold
- pKd (GRIP1_5, Q9Y3R0; [1]): below the threshold
- pKd (Inadl_1, Q8NI35; [1]): below the threshold
- pKd (Inadl_10, Q8NI35; [1]): below the threshold
- pKd (Inadl_4, Q8NI35; [1]): below the threshold
- pKd (Inadl_6, Q8NI35; [1]): below the threshold
- pKd (LNX1_3, Q8TBB1; [1]): below the threshold
- pKd (LNX2_2, Q8N448; [1]): below the threshold
- pKd (MAGI2_3, Q86UL8; [1]): below the threshold
- pKd (MAGI3_2, Q5TCQ9; [1]): below the threshold
- pKd (MPDZ_5, O75970; [1]): below the threshold
- pKd (NHERF4_2, Q86UT5; [1]): below the threshold
- pKd (NOS1, P29475; [1]): below the threshold
- pKd (PARD3B_1, Q8TEW8; [1]): below the threshold
- pKd (PDLIM1, O00151; [1]): below the threshold
- pKd (PDZD7_3, Q9H5P4; [1]): below the threshold
- pKd (PDZRN4_1, Q6ZMN7; [1]): below the threshold
- pKd (PTPN3, P26045; [1]): below the threshold
- pKd (SHANK1, Q9Y566; [1]): below the threshold
- pKd (SIPA1L2, Q9P2F8; [1]): below the threshold
Binder: TGDTLEKFVEGL [CBP, Q92793]

- pKd (APBA1_2, Q02410; [2]): 4.03
- pKd (DFNB31_3, Q9P202; [2]): 3.67
- pKd (DLG2_3, Q15700; [2]): 4.67
- pKd (FRMPD1, Q5SYB0; [2]): below the threshold
- pKd (FRMPD2_1, Q68DX3; [2]): below the threshold
- pKd (FRMPD3, Q5JV73; [2]): below the threshold
- pKd (FRMPD4, Q14CM0; [2]): below the threshold
- pKd (GRIP1_4, Q9Y3R0; [2]): below the threshold
- pKd (GRIP1_5, Q9Y3R0; [2]): below the threshold
- pKd (Inadl_1, Q8NI35; [2]): below the threshold
- pKd (Inadl_10, Q8NI35; [2]): 3.64
- pKd (Inadl_4, Q8NI35; [2]): below the threshold
- pKd (Inadl_6, Q8NI35; [2]): 3.81
- pKd (LNX1_3, Q8TBB1; [2]): below the threshold
- pKd (LNX2_2, Q8N448; [2]): 4.56
- pKd (MAGI2_3, Q86UL8; [2]): 4.31
- pKd (MAGI3_2, Q5TCQ9; [2]): 4.53
- pKd (MPDZ_5, O75970; [2]): below the threshold
- pKd (NHERF4_2, Q86UT5; [2]): below the threshold
- pKd (NOS1, P29475; [2]): 3.68
- pKd (PARD3B_1, Q8TEW8; [2]): below the threshold
- pKd (PDLIM1, O00151; [2]): below the threshold
- pKd (PDZD7_3, Q9H5P4; [2]): 5.11
- pKd (PDZRN4_1, Q6ZMN7; [2]): below the threshold
- pKd (PTPN3, P26045; [2]): 4.64
- pKd (SHANK1, Q9Y566; [2]): 4.1
- pKd (SIPA1L2, Q9P2F8; [2]): below the threshold
Binder: HSGSYLVTSV [APC, P25054]
